Laboratory results published in the supplement of paper PMC7125110.
± gives the standard error. For some assays here: Variants at the floor of the assay were thinned out.

B1: glmS ribozyme (parent)
chain: AUAAAAGCGCCAGAACUACAGAAAUGUAGUUGACGAGGAGGAGGUUUAUCGAAUUUUCGGCGGAUGCCUCCAAA

How the values were obtained:
Conditions in all cases: with glucosamine-6-phosphate
glucosamine-6-phosphate [1] = variants of: B1; test: kcat; higher = faster cleavage; RNA array
In short: (§1)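 Barcoded ribozyme variants on sequenced MiSeq chips were transcribed in situ by E. coli RNA polymerase and followed at 37 °C through a hybridised Cy3 probe. Glucosamine-6-phosphate at 40 μM to 10 mM in HEPES/KCl/Mg(OAc)2 buffer was flowed in, and tiles were imaged over ~14 h. Signals were normalised to baseline and to non-cleaving reference variants, and per-tile medians were fit to one- or two-exponential decays to give kobs. Weighted Michaelis–Menten fits across concentrations gave kcat and KM.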

glucosamine-6-phosphate [2] = variants of: B1; test: self-cleavage kobs at 40 uM GlcN6P; higher = faster cleavage; RNA array
In short: as §1

glucosamine-6-phosphate [3] = variants of: B1; test: self-cleavage kobs at 640 uM GlcN6P; higher = faster cleavage; RNA array
In short: as §1

glucosamine-6-phosphate [4] = variants of: B1; test: self-cleavage kobs at 2500 uM GlcN6P; higher = faster cleavage; RNA array
In short: as §1

glucosamine-6-phosphate [5] = variants of: B1; test: self-cleavage kobs at 10000 uM GlcN6P; higher = faster cleavage; RNA array
In short: as §1

glucosamine-6-phosphate [6] = variants of: B1; test: KM; higher = weaker cofactor use; RNA array
In short: as §1

glucosamine-6-phosphate [7] = variants of: B1; test: self-cleavage kobs at 160 uM GlcN6P; higher = faster cleavage; RNA array
In short: as §1

Variant	kcat (glucosamine-6-phosphate [1]) [s⁻¹]	self-cleavage kobs at 40 uM GlcN6P (glucosamine-6-phosphate [2]) [s⁻¹]	self-cleavage kobs at 640 uM GlcN6P (glucosamine-6-phosphate [3]) [s⁻¹]	self-cleavage kobs at 2500 uM GlcN6P (glucosamine-6-phosphate [4]) [s⁻¹]	self-cleavage kobs at 10000 uM GlcN6P (glucosamine-6-phosphate [5]) [s⁻¹]	KM (glucosamine-6-phosphate [6]) [µM]	self-cleavage kobs at 160 uM GlcN6P (glucosamine-6-phosphate [7]) [s⁻¹]
U46C U47A	0.00433 ± 0.002	9.34e-05 ± 1.5e-05	0.000719 ± 0.00017	0.00311 ± 0.0008	0.00365 ± 0.001	–	–
A53C C70G	8.19e-05 ± 3.8e-06	–	5.26e-05 ± 9.1e-06	6.51e-05 ± 9.9e-06	7.97e-05 ± 7.3e-06	438 ± 110	–
C61U C67A	1.1e-05 ± 1.5e-06	–	–	–	–	–	–
A15G A53C	0.00857 ± 0.0011	0.000205 ± 3.7e-05	0.00195 ± 0.00035	0.00522 ± 0.0012	0.00742 ± 0.0015	1860 ± 340	0.000653 ± 0.00021
A6C C61A	< 1e-05	< 1e-05	–	–	< 1e-05	–	–
G51A U54C	< 1e-05	–	–	–	–	–	–
G37U A64C	< 1e-05	< 1e-05	–	–	–	–	–
A14C A53U	0.00451 ± 0.00085	7.8e-05 ± 7.6e-06	0.000737 ± 0.00012	0.00214 ± 0.00026	0.0035 ± 0.00029	2930 ± 790	0.000184 ± 2.7e-05
G37A A39U	0.00167 ± 0.00028	–	0.00028 ± 4e-05	0.000838 ± 9.2e-05	0.00116 ± 0.00015	3280 ± 870	6.13e-05 ± 1.5e-05
G13A G32A	0.00473 ± 0.0013	4.73e-05 ± 7.3e-06	0.000518 ± 0.00011	0.00129 ± 0.00022	0.00362 ± 0.00047	4730 ± 1900	0.000204 ± 6.5e-05
C11G G59U C68A	1.43e-05 ± 2.1e-06	–	–	–	–	–	–
G44A U54A	0.000692 ± 0.00012	–	0.000132 ± 3.9e-05	0.00051 ± 0.0002	0.000538 ± 0.00011	2530 ± 870	–
U30C C61G	1.42e-05 ± 1.3e-06	–	–	–	–	–	–
U46A C70U	0.004 ± 0.0017	0.000188 ± 3.1e-05	0.00135 ± 0.00019	0.00206 ± 0.00026	0.00626 ± 0.00087	–	0.000346 ± 5.5e-05
A15U U46C	0.000336 ± 2.6e-05	–	0.000111 ± 1.1e-05	0.000249 ± 3.3e-05	0.000288 ± 2.9e-05	1290 ± 210	2.98e-05 ± 1.3e-05
A15U C71G	0.000329 ± 9.4e-05	–	9.25e-05 ± 9.6e-06	0.000157 ± 2.3e-05	0.000359 ± 4.3e-05	–	4.2e-05 ± 8.4e-06
U57C C70U	0.00016 ± 1.8e-05	–	7.23e-05 ± 9.1e-06	0.000137 ± 1.3e-05	0.000124 ± 2.4e-05	741 ± 210	2.63e-05 ± 8.9e-06

Variant	kcat (glucosamine-6-phosphate [1]) [s⁻¹]	self-cleavage kobs at 40 uM GlcN6P (glucosamine-6-phosphate [2]) [s⁻¹]	self-cleavage kobs at 640 uM GlcN6P (glucosamine-6-phosphate [3]) [s⁻¹]	self-cleavage kobs at 2500 uM GlcN6P (glucosamine-6-phosphate [4]) [s⁻¹]	self-cleavage kobs at 10000 uM GlcN6P (glucosamine-6-phosphate [5]) [s⁻¹]	KM (glucosamine-6-phosphate [6]) [µM]	self-cleavage kobs at 160 uM GlcN6P (glucosamine-6-phosphate [7]) [s⁻¹]
C50A C61U C70U	3.88e-05 ± 1.2e-05	–	–	–	–	–	–
A12G G40U	0.000365 ± 1.8e-05	–	5.37e-05 ± 6.7e-06	0.000148 ± 1.3e-05	0.000265 ± 1.9e-05	3740 ± 350	–
A39C C71A	6.38e-05 ± 6.4e-06	–	–	4.16e-05 ± 1.1e-05	5.25e-05 ± 7.2e-06	1930 ± 720	–
A14G U45G	0.0225 ± 0.0076	0.000286 ± 0.0001	0.00617 ± 0.0025	0.00864 ± 0.003	0.0175 ± 0.0071	3450 ± 1400	0.000908 ± 0.00024
A52C U57C	3.44e-05 ± 6.5e-06	–	–	4.64e-05 ± 1.6e-05	2.95e-05 ± 1e-05	–	–
G41C A42G	0.00017 ± 1e-05	–	6.25e-05 ± 1e-05	0.000107 ± 1.5e-05	0.000158 ± 1.9e-05	1210 ± 190	–
G41C A42U	4.23e-05 ± 1.3e-06	–	–	–	3.82e-05 ± 6.7e-06	1050 ± 290	< 1e-05
A52G	0.00319 ± 0.00046	3.36e-05 ± 1e-06	0.000385 ± 9.1e-06	0.00127 ± 5.6e-05	0.0022 ± 6.2e-05	4410 ± 790	0.000104 ± 3.3e-06
U30G C50A	< 1e-05	< 1e-05	–	–	–	–	–
G59U C67U	2.54e-05 ± 5.9e-06	–	–	3.07e-05 ± 7.5e-06	–	–	–
U54A G59U	0.000197 ± 2.9e-05	–	–	–	5.84e-05 ± 1e-05	–	–
G37U U69C	1.14e-05 ± 5.4e-06	–	–	–	< 1e-05	–	< 1e-05
C8U C50G	0.000208 ± 1.2e-05	0.00012 ± 2e-05	0.000188 ± 3.3e-05	0.000229 ± 3.5e-05	0.000178 ± 7.7e-05	31 ± 8	0.000167 ± 2.4e-05
G37A U47G U55G	0.000459 ± 0.00013	–	0.000101 ± 1.6e-05	0.000183 ± 2.9e-05	0.000412 ± 6.3e-05	–	–
C8U A42U	< 1e-05	–	< 1e-05	–	–	–	–
U31A A53C	0.00557 ± 0.0019	4.92e-05 ± 9.4e-06	0.000507 ± 6.9e-05	0.00162 ± 0.00025	0.00393 ± 0.00053	5300 ± 2300	0.000229 ± 3.4e-05
G29A A53G	0.00571 ± 0.0021	0.000136 ± 3.6e-05	0.000915 ± 0.00019	0.00162 ± 0.00059	0.00483 ± 0.00087	3380 ± 1700	0.000249 ± 4.3e-05
